Measurements taken from publication PMC12363564, “Modulation of the PTPRS proteoglycan switch by antibodies binding to the membrane-proximal fibronectin-type III domain” (The Journal of Biological Chemistry, 2025).
Values belong to the binder of their own block, whether it stands above or below them.

Key:
[1] = biological target: T1, C-terminally 6xHis tagged mouse PTPRS (mPTPRS) ECD (mouse, UniProt B0V2N1 30-1257); experiment: BLI
T1 chain: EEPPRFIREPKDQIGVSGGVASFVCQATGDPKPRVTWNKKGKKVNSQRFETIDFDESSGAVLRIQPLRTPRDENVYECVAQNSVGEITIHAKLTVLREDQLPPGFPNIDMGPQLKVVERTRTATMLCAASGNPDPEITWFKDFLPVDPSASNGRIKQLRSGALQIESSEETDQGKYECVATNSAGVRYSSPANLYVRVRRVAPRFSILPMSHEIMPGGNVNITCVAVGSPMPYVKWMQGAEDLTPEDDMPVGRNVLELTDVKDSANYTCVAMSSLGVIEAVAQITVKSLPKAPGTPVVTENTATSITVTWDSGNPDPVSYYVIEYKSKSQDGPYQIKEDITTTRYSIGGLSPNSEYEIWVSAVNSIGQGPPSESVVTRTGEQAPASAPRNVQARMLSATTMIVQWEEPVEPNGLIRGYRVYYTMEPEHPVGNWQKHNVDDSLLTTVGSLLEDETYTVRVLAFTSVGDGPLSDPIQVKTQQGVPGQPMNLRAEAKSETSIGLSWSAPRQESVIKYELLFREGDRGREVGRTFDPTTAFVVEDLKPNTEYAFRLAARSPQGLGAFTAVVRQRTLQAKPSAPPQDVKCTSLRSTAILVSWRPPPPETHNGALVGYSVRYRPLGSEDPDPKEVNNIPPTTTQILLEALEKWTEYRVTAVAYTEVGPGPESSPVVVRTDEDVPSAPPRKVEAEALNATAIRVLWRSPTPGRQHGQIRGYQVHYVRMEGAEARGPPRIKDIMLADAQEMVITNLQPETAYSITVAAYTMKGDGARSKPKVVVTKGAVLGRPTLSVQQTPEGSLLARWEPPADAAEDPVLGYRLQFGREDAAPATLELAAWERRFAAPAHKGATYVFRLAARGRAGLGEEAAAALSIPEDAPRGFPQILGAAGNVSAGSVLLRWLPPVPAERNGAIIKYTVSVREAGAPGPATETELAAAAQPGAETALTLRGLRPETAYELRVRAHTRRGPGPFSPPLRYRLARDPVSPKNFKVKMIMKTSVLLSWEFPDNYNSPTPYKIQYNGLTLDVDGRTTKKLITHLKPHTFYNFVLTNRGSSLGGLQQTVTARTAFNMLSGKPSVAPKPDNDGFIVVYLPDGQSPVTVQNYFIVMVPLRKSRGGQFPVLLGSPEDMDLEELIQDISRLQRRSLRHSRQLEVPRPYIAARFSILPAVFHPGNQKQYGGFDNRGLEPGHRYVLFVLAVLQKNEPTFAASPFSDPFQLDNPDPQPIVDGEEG

[2] = biological target: T2, C-terminally 6xHis tagged mouse PTPRS (mPTPRS) ECD (Mus musculus, UniProt B0V2N1); experiment: BLI; His-tagged ligand (mPTPRS ECD or hPTPRS Fn9) immobilised on anti-6xHis probes at 100 to 200 nM; antibodies or scFv-Fc fusions as analytes; Gator K buffer (0.02% BSA, 0.002% Tween-20 in PBS, pH 7.4), 37 °C; biphasic (2:1) association model; conditions: both partners purified
T2 construct: also called mPTPRS ectodomain; PTPRS ectodomain; source: HEK293T, transiently transfected, supernatant; purified (Ni-NTA, HiTrap heparin); not shown: His6, C-terminal, kept

[3] = biological target: T3, 6xHis-tagged hPTPRS Fn9 (residues 1117-1270) (human, UniProt Q13332 1117-1270); experiment: BLI
T3 chain: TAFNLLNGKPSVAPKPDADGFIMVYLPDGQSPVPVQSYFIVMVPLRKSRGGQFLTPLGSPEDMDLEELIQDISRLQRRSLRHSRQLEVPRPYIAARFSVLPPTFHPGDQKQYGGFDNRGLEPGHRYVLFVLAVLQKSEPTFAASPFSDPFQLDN

[4] = biological target: T3, 6xHis-tagged hPTPRS Fn9 (residues …); experiment: BLI
[5] = biological target: T4, WT human PTPRS (hPTPRS) isoform 1 with a C-terminal HA tag (human, UniProt Q13332); experiment: proximity ligation; purified antibody, scFv-Fc or Fc decoy added for 30 min to the co-transfected HEK293T cells before the PLA; read-out is the loss of the PLA signal of the tagged pair; conditions: one partner purified
T4 construct: human PTPRS isoform 1, open reading frame in pcDNA3.1 (+); also called PTPRS-HA; hPTPRS-HA; source: HEK293T, transfected; in RIPA lysate (immunoprecipitation), on or in cells (flow cytometry, PLA); not shown: HA, C-terminal, kept
T4 sequence (Q13332 30-1948): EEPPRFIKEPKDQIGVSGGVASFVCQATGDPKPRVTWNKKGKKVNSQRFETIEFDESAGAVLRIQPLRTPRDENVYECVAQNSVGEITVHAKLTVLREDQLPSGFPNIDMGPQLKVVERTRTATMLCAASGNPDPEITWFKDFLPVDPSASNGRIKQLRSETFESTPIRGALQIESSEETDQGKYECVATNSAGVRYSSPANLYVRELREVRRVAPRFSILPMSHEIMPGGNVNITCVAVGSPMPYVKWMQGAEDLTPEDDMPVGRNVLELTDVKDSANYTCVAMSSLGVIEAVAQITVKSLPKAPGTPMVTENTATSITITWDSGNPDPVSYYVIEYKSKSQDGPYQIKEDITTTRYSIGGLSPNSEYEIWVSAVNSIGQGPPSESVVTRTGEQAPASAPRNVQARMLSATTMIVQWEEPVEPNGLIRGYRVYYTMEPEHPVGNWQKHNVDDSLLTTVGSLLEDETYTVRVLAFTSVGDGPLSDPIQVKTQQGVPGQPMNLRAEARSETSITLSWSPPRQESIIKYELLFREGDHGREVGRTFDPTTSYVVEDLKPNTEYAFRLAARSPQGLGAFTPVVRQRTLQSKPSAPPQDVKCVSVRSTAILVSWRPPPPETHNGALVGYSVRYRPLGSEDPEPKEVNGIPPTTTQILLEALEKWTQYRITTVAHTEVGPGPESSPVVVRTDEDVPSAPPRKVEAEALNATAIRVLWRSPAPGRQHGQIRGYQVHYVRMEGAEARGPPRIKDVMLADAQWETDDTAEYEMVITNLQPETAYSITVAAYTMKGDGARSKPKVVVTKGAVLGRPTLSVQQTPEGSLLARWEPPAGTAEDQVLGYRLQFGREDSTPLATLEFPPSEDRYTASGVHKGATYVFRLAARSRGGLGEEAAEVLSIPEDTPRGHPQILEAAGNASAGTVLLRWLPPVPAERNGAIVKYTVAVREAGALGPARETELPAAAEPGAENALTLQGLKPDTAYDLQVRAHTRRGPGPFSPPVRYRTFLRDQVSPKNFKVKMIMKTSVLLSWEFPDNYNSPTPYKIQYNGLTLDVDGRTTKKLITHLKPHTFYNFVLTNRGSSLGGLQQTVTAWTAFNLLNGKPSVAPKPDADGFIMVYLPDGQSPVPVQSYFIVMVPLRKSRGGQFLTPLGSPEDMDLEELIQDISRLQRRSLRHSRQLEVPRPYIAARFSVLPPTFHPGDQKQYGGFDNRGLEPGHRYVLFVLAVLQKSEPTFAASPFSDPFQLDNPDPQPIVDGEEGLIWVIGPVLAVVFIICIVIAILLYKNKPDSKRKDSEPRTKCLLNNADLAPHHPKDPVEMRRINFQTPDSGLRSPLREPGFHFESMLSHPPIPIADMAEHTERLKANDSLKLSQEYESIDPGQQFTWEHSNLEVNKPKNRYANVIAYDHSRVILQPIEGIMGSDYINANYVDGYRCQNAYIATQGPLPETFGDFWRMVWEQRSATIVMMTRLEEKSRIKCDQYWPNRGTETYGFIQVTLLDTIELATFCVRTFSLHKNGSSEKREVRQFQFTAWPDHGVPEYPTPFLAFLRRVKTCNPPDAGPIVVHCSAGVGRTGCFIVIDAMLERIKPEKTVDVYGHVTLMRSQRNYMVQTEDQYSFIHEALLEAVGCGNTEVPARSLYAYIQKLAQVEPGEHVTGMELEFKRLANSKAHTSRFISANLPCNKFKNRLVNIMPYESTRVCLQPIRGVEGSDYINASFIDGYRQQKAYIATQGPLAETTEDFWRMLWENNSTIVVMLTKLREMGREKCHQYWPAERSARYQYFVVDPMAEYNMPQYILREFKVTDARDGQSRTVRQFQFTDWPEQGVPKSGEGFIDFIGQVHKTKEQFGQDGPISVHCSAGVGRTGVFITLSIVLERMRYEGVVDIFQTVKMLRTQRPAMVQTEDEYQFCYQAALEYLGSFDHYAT

[6] = biological target: T5, 6xHis-tagged hPTPRS Fn9 (residues 1117-1270) (Homo sapiens, UniProt Q13332); experiment: BLI; His-tagged ligand (mPTPRS ECD or hPTPRS Fn9) immobilised on anti-6xHis probes at 100 to 200 nM; antibodies or scFv-Fc fusions as analytes; Gator K buffer (0.02% BSA, 0.002% Tween-20 in PBS, pH 7.4), 37 °C; biphasic (2:1) association model; conditions: both partners purified
T5 construct: human PTPRS isoform 1 (Q13332), fibronectin type III-like domain 9, residues 1117-1270, amplified from WT hPTPRS and subcloned into pHLsec; the printed primers encode a start at TAFNLLN and an end at PFQLDN (translated from the primers); also called hPTPRS Fn9His; Fn9 fragment of PTPRS; source: HEK293T, transiently transfected, supernatant

[7] = biological target: T1, C-terminally 6xHis tagged mouse PTPRS …; experiment: BLI
[8] = biological target: T4, WT human PTPRS (hPTPRS) isoform 1 with …; experiment: co-IP; RIPA lysates of HEK293T cells overexpressing HA-tagged full length or truncated hPTPRS incubated with the antibody for 2 h at 4 °C, Protein G Sepharose, anti-HA blot; conditions: one partner purified
[9] = biological target: T6, PTPRS^Δ326 (hPTPRS-HA N-terminal truncation lacking Ig-like domains 1 to 3) (Homo sapiens, UniProt Q13332, point mutant); experiment: as above; conditions: one partner purified
T6 construct: human PTPRS isoform 1, N-terminal truncation lacking Ig-like domains 1 to 3, obtained from WT hPTPRS-HA by site-directed mutagenesis; source: HEK293T, transfected, in RIPA lysate; not shown: HA, C-terminal, kept

[10] = biological target: T7, PTPRS^Δ1096 (hPTPRS-HA N-terminal truncation lacking the ECD including most of Fn8) (Homo sapiens, UniProt Q13332, point mutant); experiment: as above; conditions: one partner purified
T7 construct: human PTPRS isoform 1, N-terminal truncation lacking the ECD including most of Fn8, obtained from WT hPTPRS-HA by site-directed mutagenesis; source: HEK293T, transfected, in RIPA lysate; not shown: HA, C-terminal, kept

[11] = biological target: T1, C-terminally 6xHis tagged mouse PTPRS …; experiment: BLI
[12] = biological target: T1, C-terminally 6xHis tagged mouse PTPRS …; experiment: SPR
[13] = biological target: T4, WT human PTPRS (hPTPRS) isoform 1 with …; experiment: flow cytometry on cells; HEK293T cells transfected with hPTPRS-HA (WT or Fn9mut) or empty vector, incubated 1 h with the antibody, AF568-labelled anti-mouse IgG; conditions: one partner purified
[14] = biological target: T2, C-terminally 6xHis tagged mouse PTPRS …; experiment: SPR; Octet SF3; anti-PTPRS Ab immobilised by amine coupling on a PCH sensor chip; analyte mPTPRS ECD 2500 nM to 9.77 nM; 1x PBS with 0.005% Tween-20; multi-cycle kinetics; conditions: both partners purified

B2: 22H8^HL-scFv-Fc (VH-linker-VL scFv of 22H8 fused to human IgG1 Fc) (scFv, V domains shown)
VH: QVQLQQSGAELARPGASVKLSCKASGYTFTSYWMQWVKQRPGQGLEWIGAIYPGDGDTRYTQKFKGKATLTADKSSSTAYMQLSSLASEDSAVYYCARRIYYGYYYAMDYWGQGTSVTVSS
VL: DIVLTQSPASLAVSLGQRATISCKASQSVDYDGDSYMNWYQQKPGQPPKLLIYAASNLESGIPARFSGSGSGTDFTLNIHPVEEEDAATYYCQQSNEDPLTFGAGTKLELK
notes: as the VH of m3 (22H8); linker between VH and VL; as the VL of m3 (22H8); ORF synthesized by Genscript and subcloned into pHLsec as a C-terminal hFc fusion; also called 22H8-Fc HL; source: HEK293T, transiently transfected, supernatant; purified (Protein A); not shown: Fc (human IgG1), C-terminal, kept
Kd [3]: 2.65 nM
koff [4]: 0.0056 s⁻¹
binding result [5]: binds
binding result [6]: binds

B3: 22H8 (mouse monoclonal antibody, IgG1/κ) (antibody, V domains shown)
VH: B2 VH
VL: B2 VL
notes: VH of 22H8; constant region of the mouse IgG1 heavy chain; VL of 22H8; constant region of the mouse κ light chain; IgG1/κ; source: production contracted to Viva Biotech
Kd [3]: 17.6 nM
koff [7]: 0.002 s⁻¹
koff [4]: 0.009 s⁻¹
binding result [8]: binds
binding result [9]: binds
binding result [10]: binds
binding result [6]: binds
Kd [2]: 13.2 ± 3.74 nM

B4: 49F2 (mouse monoclonal antibody, IgG1/κ) (antibody, V domains shown)
VH: EVQLVESGGDLVKPGGSLKLSCAASGFIFSSYGMSWVRQTPDKRLEWVATISSGGSDTYYPDSVKGRFTISRDNANNTLYLQMSSLKSEDTAMYYCARQVYYGLYWYFDVWGAGTTVTVSS
VL: DIVMTQSHKFMSTSVGDRVSIICKASQDVNTAVAWYQQKPGQSPKLLIYSASYRYTGVPDRFTGSGSGTDFTFTISSVQAEDLAIYYCQQHYSTPYTFGGGTKLEIK
notes: VH of 49F2; constant region of the mouse IgG1 heavy chain; VL of 49F2; constant region of the mouse κ light chain; IgG1/κ; source: production contracted to Viva Biotech
koff [7]: 0.005 s⁻¹
binding result [8]: binds
binding result [9]: binds
binding result [10]: binds
Kd [2]: 25.7 ± 9.66 nM

B5: 13G5^IgG1 (13G5 variable regions on mouse IgG1/κ constant regions) (antibody, V domains shown)
VH: EVKLVESGGGLVQPGGSLKLSCATSGFTFSDYYMYWVRQTPEKRLEWVAYISNGGGSTYYPDTVKGRFTISRDNAKNTLYLQMSRLKSEDTAMYYCARHVYYGRNYAMDYWGQGTSVTVSS
VL: DIQMTQTTSSLSASLGDRVTISCRASQDISNYLNWYQQKPDGTVKLLIYYTSRLHSGVPSRFSGSGSGTDYSLTISNLEQEDIATYFCQQGNTLPYTFGGGTKLEIK
Kd [11]: 16.5 nM
koff [1]: 0.003 s⁻¹

B6: 13G5^HL-scFv-Fc (VH-linker-VL scFv of 13G5 fused to human IgG1 Fc) (scFv, V domains shown)
VH: B5 VH
VL: B5 VL
Kd [3]: 0.28 nM
koff [4]: 0.00016 s⁻¹

More lines, now with the values ahead:

koff [1]: 0.06 s⁻¹
Kd [2]: 38.2 nM
B1: 22H8^IgG2b (22H8 variable regions on mouse IgG2b/κ constant regions) (antibody, V domains shown)
VH: B2 VH
VL: B2 VL
notes: as the VH of m3 (22H8); constant region of the mouse IgG2b heavy chain (entire constant region swapped); as the VL of m3 (22H8); constant region of the mouse κ light chain; IgG2b/κ form of 22H8; source: production contracted to Viva Biotech

Kd [3]: 6.03 nM
koff [12]: 0.00079 s⁻¹
koff [7]: 0.083 s⁻¹
koff [4]: 0.003 s⁻¹
mean fluorescence relative to 22H8 [13]: ~2 fold
Kd [14]: 95 nM
binding result [9]: binds
binding result [10]: binds
Kd [2]: 122 ± 1.9 nM
B7: 13G5 (mouse monoclonal antibody, IgG2b/κ) (antibody, V domains shown)
VH: B5 VH
VL: B5 VL
notes: VH of 13G5; constant region of the mouse IgG2b heavy chain; VL of 13G5; constant region of the mouse κ light chain; IgG2b/κ; also called anti-PTPRS Ab 13G5; source: production contracted to Viva Biotech
